From patent US20250277030A1, “ANTI-NAPI2B ANTIBODIES AND METHODS OF USE” (Zymeworks BC Inc., priority 2022, published 2025)

Experiments:
[1] = tested on: HCC-78 cells; assay: Internalization by flow cytometry in HCC-78 cells; assay type: cell-based, human; details: antibody 10 nM
Procedure: Briefly, antibodies were fluorescently labeled by coupling to a Fab fragment AF488 conjugate targeting anti-Human IgG Fe (Jackson Immuno Research Labs, West Grove, PA; Cat. No. 109-547-008) at a 1:1 molar ratio in PBS pH 7.4 (Thermo Fisher Scientific, Waltham, MA; Cat. No. 10010-023), for 24 hours at 4° C. Cells were seeded at 50,000 cells/well in RPMI 1640, ATCC modification (Thermo Fisher Scientific, Waltham, MA) supplemented with 10% fetal bovine serum (Thermo Fisher Scientific, Waltham, MA) in 48-well plates and incubated overnight under standard culturing conditions (37° C./5% CO2) to allow attachment. […] Following incubation, cells were dissociated, washed, and surface AF488 fluorescence was quenched using an anti-AF488 antibody (Life Technologies, Carlsbad, CA; Cat. No. A-11094) at 100 nM for 30 minutes at 4° C. […] (internalized fluorescence) was detected by flow cytometry on a BD LSRFortessa™ Cell Analyzer (BD Biosciences, Franklin Lake, NJ) with 1,000 minimum events collected per well. The AF488/FITC-A GeoMean (fluorescence signal geometric mean, proportional to anti-Human Fab AF488 labelling) was calculated for the live single cell population using FlowJo™ Version 10.8.1 (BD Biosciences, Franklin Lake, NJ) and plotted using GraphPad Prism Version 9 (GraphPad Software, San Diego, CA).

[2] = molecular target: T1, NaPi2b expressed on IGROV-1 cells (Homo sapiens, UniProt O95436); assay: Cellular binding of bivalent antibodies to IGROV-1 cells by flow cytometry (Example 13); details: IGROV-1, 24 hours at 4° C., NB = no cellular binding
T1 construct: IGROV-1 cells express endogenous NaPi2b at a high level; endogenous in cells; host or cells: IGROV-1
T1 sequence (O95436 1-690): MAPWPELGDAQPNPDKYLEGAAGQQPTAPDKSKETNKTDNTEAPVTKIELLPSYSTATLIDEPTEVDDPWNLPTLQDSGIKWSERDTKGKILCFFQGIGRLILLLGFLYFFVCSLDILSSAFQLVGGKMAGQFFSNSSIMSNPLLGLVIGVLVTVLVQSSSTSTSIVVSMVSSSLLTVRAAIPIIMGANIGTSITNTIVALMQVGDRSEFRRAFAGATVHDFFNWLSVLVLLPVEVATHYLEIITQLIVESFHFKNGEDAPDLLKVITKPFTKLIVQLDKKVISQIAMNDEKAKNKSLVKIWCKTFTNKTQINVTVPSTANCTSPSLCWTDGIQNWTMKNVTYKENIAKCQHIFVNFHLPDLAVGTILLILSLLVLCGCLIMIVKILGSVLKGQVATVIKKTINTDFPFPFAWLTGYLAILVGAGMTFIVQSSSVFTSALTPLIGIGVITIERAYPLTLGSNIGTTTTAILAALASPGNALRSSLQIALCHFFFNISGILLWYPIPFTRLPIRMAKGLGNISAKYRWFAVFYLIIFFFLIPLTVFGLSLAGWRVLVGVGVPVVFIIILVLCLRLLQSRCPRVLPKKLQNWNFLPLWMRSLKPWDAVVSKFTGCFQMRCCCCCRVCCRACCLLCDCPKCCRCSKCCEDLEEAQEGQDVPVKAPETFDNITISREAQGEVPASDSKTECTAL

[3] = molecular target: T2, NaPi2b expressed on TOV-21G cells (Homo sapiens, UniProt O95436); assay: Cellular binding to TOV-21G cells by flow cytometry (Example 19); details: NB = no binding (apparent Kd >150 nM)
T2 construct: IGROV-1 and TOV-21G cells express endogenous NaPi2b at high and moderate levels, respectively; endogenous in cells; host or cells: TOV-21G
T2 sequence (O95436 1-690): T1 sequence (O95436 1-690)
Procedure: Briefly, cells were seeded at 50,000 cells/well in conical-bottom 96-well plates and treated with test antibody for 24 hours at 4° C. to prevent internalization. Palivizumab (anti-RSV antibody, v22277) was included as a negative control. […] Following incubation, cells were washed and stained with anti-Human IgG Fc AF647 conjugate (Jackson Immuno Research Labs, West Grove, PA; Cat. No. 109-605-098) at 4° C. for 30 min. Following incubation and washing, fluorescence was detected by flow cytometry on a BD LSRFortessa™ Cell Analyzer (BD Biosciences, Franklin Lake, NJ) with 1,000 minimum events collected per well. The AF647/APC-A GeoMean (fluorescence signal geometric mean, proportional to anti-Human AF647 binding) was calculated for the live cell population using FlowJo™ Version 10.8.1 (BD Biosciences, Franklin Lake, NJ) and plotted for each test antibody using GraphPad Prism Version 9 (GraphPad Software, San Diego, CA).
The ability of the humanized antibody variants v38591 and v29456 to bind to NaPi2b expressed on cells was assessed on endogenous NaPi2b-expressing tumor cell lines IGROV-1 (ovarian adenocarcinoma) and TOV-21G (ovarian carcinoma) by flow cytometry. IGROV-1 and TOV-21G cells express endogenous NaPi2b at high and moderate levels, respectively, as described in Example 10.
Cellular binding was performed according to methods described in Example 13.

Bmax (MFI) [2]: 40,867 MFI
Curve Hill Slope (h) [2]: 1.1
Kd ([2]; apparent Kd): 1100 pM
Bmax [3]: 11,271
Curve Hill Slope (h) [3]: 1.1
Kd [3]: 600 pM
B1: v29456: humanized anti-NaPi2b IgG1/kappa antibody H1L2; VH SEQ ID NO:24, VL SEQ ID NO:29 (antibody, V domains shown)
VH: QVQLVQSGAEVKKPGASVKVSCKASGFTFTSYNVHWVRQAPGQGLEWMGAISPGNGDLSYAQKFQGRVTMTRDTSTSTVYMELSSLRSEDTAVYYCARGRTGMGAVDYWGQGTLVTVSS
VL: DVQMTQSPSSLSASVGDRVTITCRASQDVYSYLNWYQQKPGKAVKLLIYYTSRLQSGVPSRFSGSGSGTDYTLTISSLQPEDFATYYCQQYNIFPWTFGQGTKLEIK
modifications: v29452, v29456, v29460 VH (H1); v29453, v29454, v29455, v29456 VL (L2)
Internalized Fluorescence Fold-Over Palivizumab ([1]; HCC-78, 5 hrs): 25.3 fold
Internalized Fluorescence Fold-Over Palivizumab ([1]; HCC-78, 24 hrs): 59.9 fold
